Assay results: PMC3189933, “Acylpeptide Hydrolase Inhibition as Targeted Strategy to Induce Proteasomal Down-Regulation” (PLoS ONE, 2011)

What was measured:
[1] = target: T1, Porcine liver acylpeptide hydrolase (porcine, UniProt P19205 1-732); assay: cell-based or functional assay
T1 sequence (looked up): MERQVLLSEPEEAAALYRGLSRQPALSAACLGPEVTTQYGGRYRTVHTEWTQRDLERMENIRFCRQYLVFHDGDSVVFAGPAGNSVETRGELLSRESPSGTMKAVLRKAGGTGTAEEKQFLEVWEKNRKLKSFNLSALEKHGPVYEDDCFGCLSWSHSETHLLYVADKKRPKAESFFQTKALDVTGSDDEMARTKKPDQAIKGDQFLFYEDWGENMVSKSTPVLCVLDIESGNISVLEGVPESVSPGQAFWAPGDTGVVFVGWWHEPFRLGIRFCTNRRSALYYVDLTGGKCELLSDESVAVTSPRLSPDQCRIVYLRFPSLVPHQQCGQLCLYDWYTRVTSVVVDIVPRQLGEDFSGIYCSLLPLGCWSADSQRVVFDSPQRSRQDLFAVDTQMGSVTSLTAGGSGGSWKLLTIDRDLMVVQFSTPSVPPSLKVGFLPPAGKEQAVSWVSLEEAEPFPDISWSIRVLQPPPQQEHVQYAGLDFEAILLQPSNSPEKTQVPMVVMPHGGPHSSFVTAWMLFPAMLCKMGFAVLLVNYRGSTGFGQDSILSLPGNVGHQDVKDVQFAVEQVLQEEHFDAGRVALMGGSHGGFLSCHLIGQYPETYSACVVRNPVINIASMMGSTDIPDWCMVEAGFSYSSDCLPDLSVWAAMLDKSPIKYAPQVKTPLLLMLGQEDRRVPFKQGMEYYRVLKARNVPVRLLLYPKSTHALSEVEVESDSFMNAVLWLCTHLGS

Bovine α-chymotrypsin = Bovine α-chymotrypsin (bovine); assay: cell-based or functional assay
[2] = target: T1, Porcine liver acylpeptide hydrolase; assay: enzyme inhibition kinetics (Lineweaver-Burk); porcine APEH (0.5 nM in the legend; 3-5 nM in the methods) pre-incubated with 100 or 150 µM SsCEI 4 for 30 min at 37°C, 50 mM Tris-HCl pH 7.5, substrate acetyl-Ala-pNA; competitive inhibition; conditions: both partners purified

B1: SsCEI 2 (peptide)
peptide: H-TILLEIKNINAD-NH2
B1 was tested, and the “IC50 of inhibition of porcine APEH activity (substrate Ac-Ala-pNA)” value [1] was 142 µM and the “IC50 of inhibition of bovine α-chymotrypsin activity” value (Bovine α-chymotrypsin) was 21.9 µM.

B2: SsCEI 4 (peptide)
peptide: H-TILAEIKNINAD-NH2
notes: As SsCEI 2 with Ala at P1; also called S4; source: synthetic peptide (solid-phase Fmoc/tBu synthesis, purified by reverse-phase HPLC)
B2 was tested, and the Ki [2] was 4 µM and the “IC50 of inhibition of porcine APEH activity (substrate Ac-Ala-pNA)” value [1] was 84 µM.
